*1 amine or outer side, *2 acyl side, *3 side chain or, on linkers, in order; H or OH if unused. Bridges are numbered along the chain shown (N, C = ends). Primed or numbered codes have the meaning given here. Where no end group is shown, it is not given here. [ ]: non-standard residue; d: D form. The star is where a group is joined. dE(AGLU) = D-glutamic acid bearing 1-amino-1-deoxy-D-glucitol; Pro(trans-4-NH2) = O=C([C@@H]1C[C@@H](N[*:3])CN1[*:1])[*:2]; DOTA = O=C(O)CN1CCN(CC(=O)O)CCN(CC(=O)*)CCN(CC(=O)O)CC1; 2Lut = 2,6-lutidylidene bridge between two thiols; N(CH2CH2CO)Gly = O=C(CN(CCC(=O)[*:3])[*:1])[*:2]; Trp(5-Cl) = N[C@@H](Cc1c[nH]c2ccc(Cl)cc12)C(=O)O; Pyridine(2,6-diCH2) = c1cc(C[*:1])nc(C[*:2])c1; 2Lut″ = 2,6-lutidylidene linking two thiols; Cysol = L-cysteinol, OC[C@H](CS[*:3])N[*:1]; APAc = 4-amino-1-carboxymethylpiperidine; Hyp = O=C(O)[C@@H]1C[C@@H](O)CN1; pS = N[C@@H](COP(=O)(O)O)C(=O)O; Aic = NC1(C(=O)O)Cc2ccccc2C1; hCys = N[C@@H](CCS)C(=O)O; hSer = N[C@@H](CCO)C(=O)O; Api = NC1(C(=O)O)CCNCC1; Nphe′ = N-phenylalanine; Thp = NC1(C(=O)O)CCOCC1; Nleu′ = N-leucine; Sar = CNCC(=O)O
Target: human Gastric Inhibitory Peptide Receptor (human) (UniProt P48546)
Sequence (P48546 22-466 limits assumed): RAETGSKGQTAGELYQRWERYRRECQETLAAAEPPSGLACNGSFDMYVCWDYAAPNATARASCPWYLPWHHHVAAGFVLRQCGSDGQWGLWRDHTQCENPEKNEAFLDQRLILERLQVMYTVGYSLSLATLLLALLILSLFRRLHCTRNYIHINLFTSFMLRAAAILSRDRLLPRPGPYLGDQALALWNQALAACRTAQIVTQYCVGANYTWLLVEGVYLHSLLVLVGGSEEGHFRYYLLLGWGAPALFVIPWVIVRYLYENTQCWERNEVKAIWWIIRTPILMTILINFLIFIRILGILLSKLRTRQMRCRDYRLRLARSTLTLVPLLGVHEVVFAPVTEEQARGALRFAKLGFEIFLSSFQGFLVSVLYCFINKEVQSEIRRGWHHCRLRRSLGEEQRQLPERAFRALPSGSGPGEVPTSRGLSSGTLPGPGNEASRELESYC
Test: FACS competition with GIP-057 on CHO-K1-hGIPR cells; pIC50 category A: >8.0

| Binder | pIC50 [pic50] |
| --- | --- |
| Ac-DW[Trp(5-Cl)][Hyp]E[dL]C[Aic]LIC-NH2 (linker 7-11 via Pyridine(2,6-diCH2)) [Ac-Asp-Trp-5Clw-Hyp-Glu-leu-[Cys(2Lut)-Aic-Leu-Ile-Cys]-NH2] | > 8 |
| Ac-DW[Trp(5-Cl)][Hyp]E[dL][hCys][Thp]LIC-NH2 (linker 7-11 via Pyridine(2,6-diCH2)) [Ac-Asp-Trp-5Clw-Hyp-Glu-leu-[Hcy(2Lut)-Thp-Leu-Ile-Cys]-NH2] | > 8 |
| Ac-DW[Trp(5-Cl)][Hyp]E[dL]C[Thp]LI[hCys]-NH2 (linker 7-11 via Pyridine(2,6-diCH2)) [Ac-Asp-Trp-5Clw-Hyp-Glu-leu-[Cys(2Lut)-Thp-Leu-Ile-Hcy]-NH2] | > 8 |
| Ac-DW[Trp(5-Cl)][N(CH2CH2CO)Gly]E[dL]C[Thp]LIC-NH2 (linker 7-11 via Pyridine(2,6-diCH2)) [Ac-Asp-Trp-5Clw-Nglu-Glu-leu-[Cys(2Lut)-Thp-Leu-Ile-Cys]-NH2] | > 8 |
| Ac-[hSer]W[Trp(5-Cl)][Hyp]E[dL]C[Thp]LIC-NH2 (linker 7-11 via Pyridine(2,6-diCH2); SMILES CC[C@H](C)[C@@H]1NC(=O)[C@H](CC(C)C)NC(=O)C2(CCOCC2)NC(=O)[C@@H](NC(=O)[C@@H](CC(C)C)NC(=O)[C@H](CCC(=O)O)NC(=O)[C@@H]2C[C@@H](O)CN2C(=O)[C@H](Cc2c[nH]c3ccc(Cl)cc23)NC(=O)[C@H](Cc2c[nH]c3ccccc23)NC(=O)[C@H](CCO)NC(C)=O)CSCc2cccc(n2)CSC[C@@H](C(N)=O)NC1=O) [Ac-Hse-Trp-5Clw-Hyp-Glu-leu-[Cys(2Lut)-Thp-Leu-Ile-Cys]-NH2] | > 8 |
| Ac-DW[Trp(5-Cl)][Nphe′]E[dL]C[Thp]LIC-NH2 (linker 7-11 via Pyridine(2,6-diCH2)) [Ac-Asp-Trp-5Clw-Nphe-Glu-leu-[Cys(2Lut)-Thp-Leu-Ile-Cys]-NH2] | > 8 |
| Ac-EW[Trp(5-Cl)][Hyp]E[dL]C[Thp]LIC-NH2 (linker 7-11 via Pyridine(2,6-diCH2); SMILES CC[C@H](C)[C@@H]1NC(=O)[C@H](CC(C)C)NC(=O)C2(CCOCC2)NC(=O)[C@@H](NC(=O)[C@@H](CC(C)C)NC(=O)[C@H](CCC(=O)O)NC(=O)[C@@H]2C[C@@H](O)CN2C(=O)[C@H](Cc2c[nH]c3ccc(Cl)cc23)NC(=O)[C@H](Cc2c[nH]c3ccccc23)NC(=O)[C@H](CCC(=O)O)NC(C)=O)CSCc2cccc(n2)CSC[C@@H](C(N)=O)NC1=O) [Ac-Glu-Trp-5Clw-Hyp-Glu-leu-[Cys(2Lut)-Thp-Leu-Ile-Cys]-NH2] | > 8 |
| W[Trp(5-Cl)][Pro(trans-4-NH2)]E[dL]C[Api](DOTA)LIC-{APAc-dE(AGLU)-NH2} (linker 6-10 via 2Lut; not fully specified (N-terminus)) [HO-Succinyl-Trp-5Clw-Tap-Glu-leu-[Cys(2Lut)-Apc(DOTA)-Leu-Ile-Cys]-APAc-glu(AGLU)-NH2] | > 8 |
| Ac-[pS]W[Trp(5-Cl)][Hyp]E[dL]C[Thp]LIC-NH2 (linker 7-11 via Pyridine(2,6-diCH2); SMILES CC[C@H](C)[C@@H]1NC(=O)[C@H](CC(C)C)NC(=O)C2(CCOCC2)NC(=O)[C@@H](NC(=O)[C@@H](CC(C)C)NC(=O)[C@H](CCC(=O)O)NC(=O)[C@@H]2C[C@@H](O)CN2C(=O)[C@H](Cc2c[nH]c3ccc(Cl)cc23)NC(=O)[C@H](Cc2c[nH]c3ccccc23)NC(=O)[C@H](COP(=O)(O)O)NC(C)=O)CSCc2cccc(n2)CSC[C@@H](C(N)=O)NC1=O) [Ac-Pse-Trp-5Clw-Hyp-Glu-leu-[Cys(2Lut)-Thp-Leu-Ile-Cys]-NH2] | > 8 |
| Ac-QW[Trp(5-Cl)][Hyp]E[dL]C[Thp]LIC-NH2 (linker 7-11 via 2Lut″) [Ac-Gln-Trp-5Clw-Hyp-Glu-leu-[Cys(2Lut)-Thp-Leu-Ile-Cys]-NH2] | > 8 |
| Ac-DW[Trp(5-Cl)][Hyp]D[dL]C[Thp]LIC-NH2 (linker 7-11 via Pyridine(2,6-diCH2)) [Ac-Asp-Trp-5Clw-Hyp-Asp-leu-[Cys(2Lut)-Thp-Leu-Ile-Cys]-NH2] | > 8 |
| Ac-DW[Trp(5-Cl)][Hyp]E[dL]C[Thp]LI[Cysol]-OH (linker 7-11 via Pyridine(2,6-diCH2)) [Ac-Asp-Trp-5Clw-Hyp-Glu-leu-[Cys(2Lut)-Thp-Leu-Ile-Cysol]-OH] | > 8 |
| Ac-DW[Trp(5-Cl)][Hyp]E[dL][hCys][Thp]LI[hCys]-NH2 (linker 7-11 via Pyridine(2,6-diCH2)) [Ac-Asp-Trp-5Clw-Hyp-Glu-leu-[Hcy(2Lut)-Thp-Leu-Ile-Hcy]-NH2] | > 8 |
| Ac-DW[Trp(5-Cl)][Nleu′]E[dL]C[Thp]LIC-NH2 (linker 7-11 via Pyridine(2,6-diCH2)) [Ac-Asp-Trp-5Clw-Nleu-Glu-leu-[Cys(2Lut)-Thp-Leu-Ile-Cys]-NH2] | > 8 |
| Ac-DW[Trp(5-Cl)][Sar]E[dL]C[Thp]LIC-NH2 (linker 7-11 via Pyridine(2,6-diCH2)) [Ac-Asp-Trp-5Clw-Nmg-Glu-leu-[Cys(2Lut)-Thp-Leu-Ile-Cys]-NH2] | > 8 |
| Ac-DW[Trp(5-Cl)][Hyp]Q[dL]C[Thp]LIC-NH2 (linker 7-11 via Pyridine(2,6-diCH2)) [Ac-Asp-Trp-5Clw-Hyp-Gln-leu-[Cys(2Lut)-Thp-Leu-Ile-Cys]-NH2] | > 8 |
